{
  "source": "paper PMC12274814",
  "biological_target": "nsP13 helicase (SARS-CoV-2) (UniProt P0DTD1)",
  "data": [
    {"substance": "ssDNA-F (25-nt)", "values": [
      {"measurement": "K half", "result": 53, "unit": "nM"}
    ]}
  ]
}
